Data reported in patent publication US9333272B2, “Fibrin binding peptide conjugates for diagnostic and therapeutic applications” (Bracco Imaging SpA, priority 2006, dated 2016).
Ends that are not written are not given here.

Target: T1, fibrin in human plasma clots (Homo sapiens, UniProt P02671+P02675+P02679)
T1 construct: tissue Dade Behring Control Plasma N; host or cells: clots formed in vitro from pooled human plasma with Pathromtin SL and CaCl2
T1 sequence (P02671 36-629 limits assumed): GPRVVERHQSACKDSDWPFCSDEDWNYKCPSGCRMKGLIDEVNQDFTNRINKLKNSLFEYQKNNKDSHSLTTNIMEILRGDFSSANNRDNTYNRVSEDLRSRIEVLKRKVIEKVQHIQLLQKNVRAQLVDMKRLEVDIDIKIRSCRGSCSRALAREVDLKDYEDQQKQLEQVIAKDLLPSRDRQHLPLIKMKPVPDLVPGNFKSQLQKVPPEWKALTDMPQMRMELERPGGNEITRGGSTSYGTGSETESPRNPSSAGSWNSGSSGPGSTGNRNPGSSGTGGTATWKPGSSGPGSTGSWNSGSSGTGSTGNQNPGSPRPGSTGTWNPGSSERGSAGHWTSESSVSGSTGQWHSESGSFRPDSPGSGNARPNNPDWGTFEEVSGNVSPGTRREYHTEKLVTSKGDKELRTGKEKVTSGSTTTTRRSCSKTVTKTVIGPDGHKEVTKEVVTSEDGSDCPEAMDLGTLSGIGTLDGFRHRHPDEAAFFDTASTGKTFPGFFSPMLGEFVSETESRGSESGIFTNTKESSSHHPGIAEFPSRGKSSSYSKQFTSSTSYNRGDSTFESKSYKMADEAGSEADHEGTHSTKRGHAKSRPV
T1 sequence (P02675 45-491 limits assumed): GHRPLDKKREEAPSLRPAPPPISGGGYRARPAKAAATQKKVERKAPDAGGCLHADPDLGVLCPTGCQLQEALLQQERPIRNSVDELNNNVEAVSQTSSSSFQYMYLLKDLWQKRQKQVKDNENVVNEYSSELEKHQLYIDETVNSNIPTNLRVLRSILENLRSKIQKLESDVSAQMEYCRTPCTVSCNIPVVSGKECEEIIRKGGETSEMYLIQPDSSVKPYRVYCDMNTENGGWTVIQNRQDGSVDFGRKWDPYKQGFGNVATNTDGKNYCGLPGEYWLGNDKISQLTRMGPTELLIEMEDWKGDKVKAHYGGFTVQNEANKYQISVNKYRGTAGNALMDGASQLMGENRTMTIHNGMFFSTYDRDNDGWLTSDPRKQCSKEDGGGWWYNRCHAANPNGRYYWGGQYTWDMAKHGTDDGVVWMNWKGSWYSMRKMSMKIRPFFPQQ
T1 sequence (P02679 27-437 isoform P02679-2 limits assumed): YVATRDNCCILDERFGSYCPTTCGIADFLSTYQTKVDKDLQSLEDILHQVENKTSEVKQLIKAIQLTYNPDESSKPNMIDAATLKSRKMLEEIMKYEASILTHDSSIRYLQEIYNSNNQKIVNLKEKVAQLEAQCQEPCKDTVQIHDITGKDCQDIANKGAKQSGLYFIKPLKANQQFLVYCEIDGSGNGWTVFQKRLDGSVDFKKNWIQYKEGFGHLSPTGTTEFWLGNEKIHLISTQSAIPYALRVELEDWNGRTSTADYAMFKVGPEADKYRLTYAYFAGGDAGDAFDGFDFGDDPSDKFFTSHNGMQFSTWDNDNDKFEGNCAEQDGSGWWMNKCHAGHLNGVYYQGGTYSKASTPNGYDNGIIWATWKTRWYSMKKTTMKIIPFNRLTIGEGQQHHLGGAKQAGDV
Assay: In vitro MRI of plasma clots at 100 μM (Example 14)
Procedure: Small plasma clots from different species (human, guinea pig and mouse) were formed by combining citrate plasma (1:3,v/v) phospholipids (Reagent Pathromtin) and CaCl2 0.008 M (Dade Behring, Germany) into small 2 ml vials at 37° C. Clots were washed 3 times with TBS 1× and incubated with contrast agents at a concentration of 100 μM of complex, for 30 minutes at 37° C. Two clots were prepared for each solution of incubation. After the incubation clots were washed 4 times with TBS 1× and placed into small vials filled with TBS 1× for MRI analysis. […] Maximum signal intensity of each clot was measured in recovered MR images and compared to the signal from clots incubated with TBS. […]
High resolution MRI was then performed at 2 Tesla by using T1-weighted Spin-Echo (SE) sequences. T1 maps were also calculated from the acquisitions of 2D gradient echo images or inversion recovery spin echo images.
The maximum signal intensity was measured within a region of interest (ROI) including a clot, drawn by an operator on each MR image using a dedicated software (MR Research Systems Ltd, Surrey UK). Max signal intensity enhancement (Enh %) was determined as: Enh %=100*(SIx−SI0)/SI0 where SI0 and SIx are the signal intensity of clots incubated without and with test compounds, respectively.

Substance: Chelate Complex 1: Gd chelate (four DTPA-Glu) conjugated via linker to fibrin-binding peptide SEQ ID NO:001 (WQPCPAESWTFCWDPGGGK; cysteine pairing not given here; also: Gd chelate (four DTPA-Glu) conjugated via linker, site not given here, metal complex: Gd)
- Signal enhancement in clots, comparison in words (100 μM of complex): provides the maximum signal enhancement
- Max signal Enhancement at 100 μM (clots incubated with 100 μM of complex, 30 min, 37°C, T1-weighted MRI at 2T, normalized to chelate complex 1): 100%
